# Measured values reported in patent publication US20140308307A1 (University of Texas, published 2014).
# B1: P94S mutant F2F3 fragment of human CPSF30 (variant used in the X-ray crystal structure determination) (other)
# chain: SGEKTVVCKHWLRGLCKKGDQCEFLHEYDMTKMSECYFYSKFGECSNKECPFLHIDPESKI
# notes: also called F2F3 with Ser in place of Pro at position 94; F2F3-A; not shown: N-terminal hexaHis tag
# Molecular target: the molecule itself
# Assay: X-ray crystal structure of the complex
protein,measurement,value
B1,binding result,binds
